Article doi:10.1101/2020.06.23.167452v1 (biorxiv, 2020)

T1: TcAK (arginine kinase from Trypanosoma cruzi) (Trypanosoma cruzi, UniProt O96507)
T1 sequence (O96507 1-357): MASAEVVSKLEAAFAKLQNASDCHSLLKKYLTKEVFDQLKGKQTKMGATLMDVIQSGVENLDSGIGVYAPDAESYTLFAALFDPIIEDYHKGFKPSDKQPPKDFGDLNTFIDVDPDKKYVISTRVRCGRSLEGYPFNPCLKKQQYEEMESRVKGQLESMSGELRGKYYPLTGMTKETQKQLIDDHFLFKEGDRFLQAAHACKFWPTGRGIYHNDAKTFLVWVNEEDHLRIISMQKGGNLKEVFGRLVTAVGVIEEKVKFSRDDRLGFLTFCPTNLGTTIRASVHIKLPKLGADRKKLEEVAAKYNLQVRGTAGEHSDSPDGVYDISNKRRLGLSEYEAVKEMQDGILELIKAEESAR

B1: TcAK (arginine kinase from Trypanosoma cruzi) (Trypanosoma cruzi) (protein)
chain: MASAEVVSKLEAAFAKLQNASDCHSLLKKYLTKEVFDQLKGKQTKMGATLMDVIQSGVENLDSGIGVYAPDAESYTLFAALFDPIIEDYHKGFKPSDKQPPKDFGDLNTFIDVDPDKKYVISTRVRCGRSLEGYPFNPCLKKQQYEEMESRVKGQLESMSGELRGKYYPLTGMTKETQKQLIDDHFLFKEGDRFLQAAHACKFWPTGRGIYHNDAKTFLVWVNEEDHLRIISMQKGGNLKEVFGRLVTAVGVIEEKVKFSRDDRLGFLTFCPTNLGTTIRASVHIKLPKLGADRKKLEEVAAKYNLQVRGTAGEHSDSPDGVYDISNKRRLGLSEYEAVKEMQDGILELIKAEESAR

Key:
[1] = molecular target: T1, TcAK (arginine kinase from Trypanosoma cruzi); test: coupled pyruvate kinase / lactate dehydrogenase assay, NADH at […] nm; type: biochemical
purified protein [2] = substrate: N=C(N)NCCC[C@H](N)C(=O)O; test: purified protein; settings: no delphinidin, ATP 1.5 mM, 1.5 mM MgCl2, Tris-HCl pH 8.2
purified protein [3] = substrate: Nc1ncnc2c1ncn2[C@@H]1O[C@H](COP(=O)(O)OP(=O)(O)OP(=O)(O)O)[C@@H](O)[C@H]1O; test: purified protein; settings: no delphinidin, arginine 10 mM, 1.5 mM MgCl2, Tris-HCl pH 8.2

Molecule	Ki [1] [nM]	Km (purified protein [2]) [µM]	Km (purified protein [3]) [µM]
Oc1cc(O)c2cc(O)c(-c3cc(O)c(O)c(O)c3)[o+]c2c1 [delphinidin]	1320		
B1		810 ± 330	200 ± 330
